The values below are quoted from earlier work in paper PMC5938170.

The target in series [1] is EGFR (Homo sapiens) (UniProt P00533).
Series [2] concerns the target Met (Homo sapiens) (UniProt P08581).
UniProt P08581, sequence (P08581 25-932): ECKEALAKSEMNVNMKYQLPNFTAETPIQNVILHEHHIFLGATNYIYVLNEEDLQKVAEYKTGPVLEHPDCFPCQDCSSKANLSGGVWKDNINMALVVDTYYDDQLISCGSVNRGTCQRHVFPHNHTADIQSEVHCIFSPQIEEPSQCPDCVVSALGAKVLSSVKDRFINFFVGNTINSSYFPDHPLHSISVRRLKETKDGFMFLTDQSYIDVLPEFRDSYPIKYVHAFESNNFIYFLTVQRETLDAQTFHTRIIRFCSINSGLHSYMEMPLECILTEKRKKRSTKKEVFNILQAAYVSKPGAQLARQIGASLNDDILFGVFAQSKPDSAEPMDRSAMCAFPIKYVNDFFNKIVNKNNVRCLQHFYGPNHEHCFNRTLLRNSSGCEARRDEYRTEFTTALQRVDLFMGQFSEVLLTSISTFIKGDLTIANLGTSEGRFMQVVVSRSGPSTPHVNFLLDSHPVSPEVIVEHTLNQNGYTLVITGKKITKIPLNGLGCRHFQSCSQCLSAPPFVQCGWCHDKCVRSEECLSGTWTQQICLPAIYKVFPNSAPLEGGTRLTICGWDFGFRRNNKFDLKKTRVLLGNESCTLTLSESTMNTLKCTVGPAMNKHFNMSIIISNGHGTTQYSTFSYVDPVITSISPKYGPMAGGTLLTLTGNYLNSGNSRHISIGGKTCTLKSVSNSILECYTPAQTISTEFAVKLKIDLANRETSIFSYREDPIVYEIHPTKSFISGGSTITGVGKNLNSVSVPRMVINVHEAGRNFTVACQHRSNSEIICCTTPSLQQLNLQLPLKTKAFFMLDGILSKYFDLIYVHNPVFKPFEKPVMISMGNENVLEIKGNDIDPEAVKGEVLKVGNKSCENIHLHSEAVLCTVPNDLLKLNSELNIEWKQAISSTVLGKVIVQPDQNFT

For Decorin (from UniProt P07585), the dissociation constant Kd – broadly, a measure of binding affinity in units of concentration – is 75 nM in series [1] and 2 nM in series [2].
